Changes are numbered by the printed parent chain.
T1: human GIP receptor (human, UniProt P48546 22-466)
T1 construct: whole, on cells; also called hGIPR; human glucose-dependent insulinotropic polypeptide receptor
T1 sequence (looked up): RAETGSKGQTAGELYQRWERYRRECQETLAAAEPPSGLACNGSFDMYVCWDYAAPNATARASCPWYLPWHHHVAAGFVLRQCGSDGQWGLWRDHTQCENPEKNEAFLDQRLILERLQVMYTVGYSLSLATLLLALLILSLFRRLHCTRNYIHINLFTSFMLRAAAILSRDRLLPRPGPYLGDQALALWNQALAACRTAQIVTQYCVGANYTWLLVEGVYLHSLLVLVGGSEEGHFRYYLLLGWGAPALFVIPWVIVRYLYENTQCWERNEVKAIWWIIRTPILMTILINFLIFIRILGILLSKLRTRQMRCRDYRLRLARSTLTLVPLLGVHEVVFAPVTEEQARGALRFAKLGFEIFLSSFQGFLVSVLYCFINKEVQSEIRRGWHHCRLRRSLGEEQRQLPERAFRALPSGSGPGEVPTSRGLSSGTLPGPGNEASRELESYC

B1: Y-Aib-EGT-αMeF(2F)-TSD-4Pal-Aib-I-αMeL-LD-Orn-K((2-[2-(2-Amino-ethoxy)-ethoxy]-acetyl)2-(γ-Glu)-CO-(CH2)10-CH3)AQ-Aib-K((2-[2-(2-Amino-ethoxy)-ethoxy]-acetyl)2- … (peptide)
peptide: YXEGTXTSDXXIXLDXKAQXKFIXXLIEGGPSSGAPPPS
modifications: Aib2, αMeF(2F)6, 4Pal10, Aib11, αMeL13, Orn16, K17(Z1), Aib20, K21(Z1), D-Glu24, αMeY25, C-term NH2; Z1=AEEA2-(γ-Glu)-CO-(CH2)10-CH3
B2: Y-Aib-EGT-aMeF(2F)-TSD-4Pal-Aib-I-aMeL-LD-Orn-K((2-[2-(2-Amino-ethoxy)-ethoxy]-acetyl)2-(γ-Glu)-CO-(CH2)10-CH3)AQ-Aib-GFIe-aMeY-LIK((2-[2-(2-Amino-ethoxy)-ethox … (peptide)
peptide: B1 peptide with K21G, E28K
modifications: Aib2, αMeF(2F)6, 4Pal10, Aib11, αMeL13, Orn16, K17(Z1), Aib20, D-Glu24 (printed e), αMeY25, K28(Z1), C-term NH2; Z1=AEEA2-(γ-Glu)-CO-(CH2)10-CH3
notes: G at position 21
B3: Y-Aib-EGT-αMeF(2F)-TSD-4Pal-Aib-I-αMeL-LD-Orn-K((2-[2-(2-Amino-ethoxy)-ethoxy]-acetyl)-(γ-Glu)-CO-(CH2)12-CO2H)AQ-Aib-K((2-[2-(2-Amino-ethoxy)-ethoxy]-acetyl)-( … (peptide)
peptide: B1 peptide
modifications: Aib2, αMeF(2F)6, 4Pal10, Aib11, αMeL13, Orn16, K17(Z1), Aib20, K21(Z1), D-Glu24, αMeY25, C-term NH2; Z1=AEEA-(γ-Glu)-CO-(CH2)12-CO2H
B4: Y-Aib-EGT-αMeF(2F)-TSD-4Pal-Aib-G-αMeL-LD-Orn-QAQ-Aib-Orn-FIK((2-[2-(2-Amino-ethoxy)-ethoxy]-acetyl)2-(γ-Glu)-CO-(CH2)12-CO2H)-αMeY-LIK((2-[2-(2-Amino-ethoxy)-e … (peptide)
peptide: YXEGTXTSDXXGXLDXQAQXXFIKXLIKGGPSSGAPPPS
modifications: Aib2, αMeF(2F)6, 4Pal10, Aib11, αMeL13, Orn16, Aib20, Orn21, K24(Z1), αMeY25, K28(Z1), C-term NH2; Z1=AEEA2-(γ-Glu)-CO-(CH2)12-CO2H
notes: G at position 12
B5: Y-Aib-EGT-αMeF(2F)-TSD-4Pal-Aib-I-αMeL-LD-Orn-K((2-[2-(2-Amino-ethoxy)-ethoxy]-acetyl)2-(γ-Glu)-CO-(CH2)10-CH3)AQ-Aib-TFI-(D-Glu)-αMeY-LIK((2-[2-(2-Amino-ethoxy … (peptide)
peptide: B1 peptide with K21T, E28K
modifications: Aib2, αMeF(2F)6, 4Pal10, Aib11, αMeL13, Orn16, K17(Z1), Aib20, D-Glu24, αMeY25, K28(Z1), C-term NH2; Z1=AEEA2-(γ-Glu)-CO-(CH2)10-CH3
notes: T at position 21
B6: Y-Aib-EGT-αMeF(2F)-TSD-4Pal-Aib-I-αMeL-LD-Orn-K((2-[2-(2-Amino-ethoxy)-ethoxy]-acetyl)-(γ-Glu)-(10-(4-carboxyphenoxy)decanoyl))AQ-Aib-K((2-[2-(2-Amino-ethoxy)-e … (peptide)
peptide: B1 peptide
modifications: Aib2, αMeF(2F)6, 4Pal10, Aib11, αMeL13, Orn16, K17(Z1), Aib20, K21(Z1), D-Glu24, αMeY25, C-term NH2; Z1=AEEA-(γ-Glu)-(10-(4-carboxyphenoxy)decanoyl)
B7: Y-Aib-EGT-αMeF(2F)-TSD-4Pal-Aib-I-αMeL-LD-Orn-K((2-[2-(2-Amino-ethoxy)-ethoxy]-acetyl)3-(γ-Glu)-CO-(CH2)10-CH3)AQ-Aib-K((2-[2-(2-Amino-ethoxy)-ethoxy]-acetyl)3- … (peptide)
peptide: B1 peptide
modifications: Aib2, αMeF(2F)6, 4Pal10, Aib11, αMeL13, Orn16, K17(Z1), Aib20, K21(Z1), D-Glu24, αMeY25, C-term NH2; Z1=AEEA3-(γ-Glu)-CO-(CH2)10-CH3
B8: Y-Aib-EGT-αMeF(2F)-TSDK((2-[2-(2-Amino-ethoxy)-ethoxy]-acetyl)3-(γ-Glu)-CO-(CH2)10-CH3)-Aib-I-αMeL-LD-Orn-K((2-[2-(2-Amino-ethoxy)-ethoxy]-acetyl)3-(γ-Glu)-CO-( … (peptide)
peptide: B1 peptide with X10K, K21E, F22X
modifications: Aib2, αMeF(2F)6, K10(Z1), Aib11, αMeL13, Orn16, K17(Z1), Aib20, αMeF22, D-Glu24, αMeY25, C-term NH2; Z1=AEEA3-(γ-Glu)-CO-(CH2)10-CH3

target: T2, human GLP-1 receptor (human, UniProt P43220 24-463); assay: SPA competition vs [125I]-GLP-1, hGLP-1R membranes
T2 construct: whole, on cells; also called hGLP-1R; human glucagon-like peptide-1 receptor
Summary of the method: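 Competition binding in 25 mM HEPES pH 7.4, 2.5 mM CaCl₂, 1 mM MgCl₂, 0.1% bacitracin, 0.003% TWEEN-20, EDTA-free protease inhibitors. IC₅₀ from four-parameter nonlinear fit; Kᵢ given as geometric mean ± SEM, n = independent replicates on different days.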

Q: B1 was tested. Which Ki did it give?
A: Its Ki is 0.234 nM.

Q: For B2, which Ki is on record?
A: Its Ki is 0.188 nM.

Q: For B3, which Ki is on record?
A: The Ki was 1.85 nM.

Q: Which Ki does the source give for B4 here?
A: Its Ki is 0.386 nM.

Q: Which Ki does the source give for B5 here?
A: The Ki was 0.265 nM.

Q: How did the Ki turn out when B6 was run?
A: Its Ki is 0.673 nM.

Q: How did the Ki turn out when B7 was run?
A: Its Ki is 0.194 nM.

Q: With B8 as the binder, how does the Ki read?
A: Its Ki is 0.412 nM.

target: T1, human GIP receptor; assay: SPA competition vs [125I]-GIP, hGIPR membranes

Q: How did the Ki turn out when B1 was run?
A: The Ki was 0.0162 nM.

Q: Which Ki does the source give for B2 here?
A: The Ki was 0.0197 nM.

Q: For B3, which Ki is on record?
A: The Ki was 0.0782 nM.

Q: B4 was tested. Which Ki did it give?
A: The Ki was 0.0539 nM.

Q: With B5 as the binder, how does the Ki read?
A: The Ki was 0.0166 nM.

Q: How did the Ki turn out when B6 was run?
A: The Ki was 0.046 nM.

Q: Which Ki does the source give for B7 here?
A: The Ki was 0.0218 nM.

Q: How did the Ki turn out when B8 was run?
A: The Ki was 0.0372 nM.

target: T3, human glucagon receptor (human, UniProt P47871 26-477); assay: SPA competition vs [125I]-Gcg, hGcgR membranes
T3 construct: whole, on cells; also called hGCGR; hGcgR
T3 sequence (P47871 26-477): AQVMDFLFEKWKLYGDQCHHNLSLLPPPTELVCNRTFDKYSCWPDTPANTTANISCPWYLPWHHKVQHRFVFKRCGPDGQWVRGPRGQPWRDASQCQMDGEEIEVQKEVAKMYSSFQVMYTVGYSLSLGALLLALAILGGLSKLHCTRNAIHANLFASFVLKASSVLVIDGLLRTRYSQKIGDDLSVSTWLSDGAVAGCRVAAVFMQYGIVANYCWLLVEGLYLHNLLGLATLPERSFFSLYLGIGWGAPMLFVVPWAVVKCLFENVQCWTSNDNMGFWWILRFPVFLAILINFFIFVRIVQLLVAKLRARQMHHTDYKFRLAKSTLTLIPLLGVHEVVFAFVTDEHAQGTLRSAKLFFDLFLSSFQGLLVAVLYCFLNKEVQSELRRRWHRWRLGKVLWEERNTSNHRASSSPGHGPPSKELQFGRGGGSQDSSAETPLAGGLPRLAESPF
Description: The binding buffer contains 25 mM 4-(2-hydroxyethyl)-1-piperazineethanesulfonic acid (HEPES), pH 7.4, 2.5 mM CaCl₂, 1 mM MgCh, 0.1% (w/v) bacitracin (Research Products), 0.003% (w/v) Polyoxyethylenesorbitan monolaurate (TWEEN®-20), and Roche Complete™ Protease Inhibitors without EDTA. […] Plates are sealed and mixed on a plate shaker (setting 6) for 1 minute and read with a PerkinElmer Trilux MicroBeta® scintillation counter after 12 hours of incubation/settling time at room temperature.
Data are analyzed using four-parameter (curve maximum, curve minimum, IC₅₀, Hill slope) nonlinear regression routines (Genedata Screener, version 12.0.4, Genedata AG, Basal, Switzerland). […] Values for Kᵢ are reported as the geometric mean, with error expressed as the standard error of the mean (SEM) and n is equal to the number of independent replicates (determined in assays performed on different days).

Q: Which Ki does the source give for B1 here?
A: Its Ki is 2.91 nM.

Q: B2 was tested. Which Ki did it give?
A: The Ki was 135 nM.

Q: How did the Ki turn out when B3 was run?
A: Its Ki is 230 nM.

Q: For B4, which Ki is on record?
A: The Ki was 592 nM.

Q: Which Ki does the source give for B5 here?
A: Its Ki is 60.6 nM.

Q: B6 was tested. Which Ki did it give?
A: Its Ki is 118 nM.

Q: For B7, which Ki is on record?
A: The Ki was 12.2 nM.

Q: For B8, which Ki is on record?
A: Its Ki is 64.9 nM.

From patent US20230265151A1, “GIP/GLP1 CO-AGONIST COMPOUNDS” (priority 2020, published 2023)
